Where two headings read alike, the source gives them in different places.
B1: 531v25 Fab (Fab, V domains shown)
VH: QVQLVQSGAEVKKPGASVKVSCKASGYTFTRYYLNWVRQAPGQGLEWIGMIDPSVSETHYAQKFQGRATLTVDKSTSTAYMELSSLRSEDTAVYYCSQIRLPYYYAMDSWGQGTTVTVSS
VL: DIQMTQSPSSLSASVGDRVTITCRASQDISSFLNWYQQKPGKAPKLLIYYTSRLQSGVPSRFSGSGSGTDYTLTISSLQPEDFATYYCQQGNTLPRTFGGGTKVEIKR
notes: The His-tag was removed with TEV protease before SPR
B2: His-tagged cynomolgus monkey TfR ectodomain (cyTFRC_89_760; mature protein) (receptor)
chain: CKGVEPKTECERLAGTESPAREEPEEDFPAAPRLYWDDLKRKLSEKLDTTDFTSTIKLLNENLYVPREAGSQKDENLALYIENQFREFKLSKVWRDQHFVKIQVKDSAQNSVIIVDKNGGLVYLVENPGGYVAYSKAATVTGKLVHANFGTKKDFEDLDSPVNGSIVIVRAGKITFAEKVANAESLNAIGVLIYMDQTKFPIVKADLSFFGHAHLGTGDPYTPGFPSFNHTQFPPSQSSGLPNIPVQTISRAAAEKLFGNMEGDCPSDWKTDSTCKMVTSENKSVKLTVSNVLKETKILNIFGVIKGFVEPDHYVVVGAQRDAWGPGAAKSSVGTALLLKLAQMFSDMVLKDGFQPSRSIIFASWSAGDFGSVGATEWLEGYLSSLHLKAFTYINLDKAVLGTSNFKVSASPLLYTLIEKTMQDVKHPVTGRSLYQDSNWASKVEKLTLDNAAFPFLAYSGIPAVSFCFCEDTDYPYLGTTMDTYKELVERIPELNKVARAAAEVAGQFVIKLTHDTELNLDYERYNSQLLLFLRDLNQYRADVKEMGLSLQWLYSARGDFFRATSRLTTDFRNAEKRDKFVMKKLNDRVMRVEYYFLSPYVSPKESPFRHVFWGSGSHTLSALLESLKLRRQNNSAFNETLFRNQLALATWTIQGAANALSGDVWDIDNEF
notes: also called cTfR; cTfR ectodomain
B3: cTfR expressed on 300.19 cells (SEQ ID NO: 2) (receptor)
chain: MMDQARSAFSNLFGGEPLSYTRFSLARQVDGDNSHVEMKLGVDEEENTDNNTKANGTKPKRCGGNICYGTIAVIIFFLIGFMIGYLGYCKGVEPKTECERLAGTESPAREEPEEDFPAAPRLYWDDLKRKLSEKLDTTDFTSTIKLLNENLYVPREAGSQKDENLALYIENQFREFKLSKVWRDQHFVKIQVKDSAQNSVIIVDKNGGLVYLVENPGGYVAYSKAATVTGKLVHANFGTKKDFEDLDSPVNGSIVIVRAGKITFAEKVANAESLNAIGVLIYMDQTKFPIVKADLSFFGHAHLGTGDPYTPGFPSFNHTQFPPSQSSGLPNIPVQTISRAAAEKLFGNMEGDCPSDWKTDSTCKMVTSENKSVKLTVSNVLKETKILNIFGVIKGFVEPDHYVVVGAQRDAWGPGAAKSSVGTALLLKLAQMFSDMVLKDGFQPSRSIIFASWSAGDFGSVGATEWLEGYLSSLHLKAFTYINLDKAVLGTSNFKVSASPLLYTLIEKTMQDVKHPVTGRSLYQDSNWASKVEKLTLDNAAFPFLAYSGIPAVSFCFCEDTDYPYLGTTMDTYKELVERIPELNKVARAAAEVAGQFVIKLTHDTELNLDYERYNSQLLLFLRDLNQYRADVKEMGLSLQWLYSARGDFFRATSRLTTDFRNAEKRDKFVMKKLNDRVMRVEYYFLSPYVSPKESPFRHVFWGSGSHTLSALLESLKLRRQNNSAFNETLFRNQLALATWTIQGAANALSGDVWDIDNEF
notes: Murine pre-B cell line 300.19, stably transfected with a plasmid expressing cTfR; also called cynomolgus TfR; cTfR-expressing 300.19 cells

What was measured:
[1] = biological target: B2; assay: SPR; KD on cTfR against KD on hTfR
Procedure: (§1) Binding of the humanized Fab variants to human, cynomolgus and mouse TfR was assessed using SPR at pH 7.4. Experiments were run on a Bruker MASS-2 instrument with HBS-EP+ as running buffer and sample diluent (Cytiva Life Sciences, #BR100826). HCA sensor chips (Bruker, #1862614) were immobilized with anti-His antibody (His capture kit, Cytiva Life Sciences, #28995056) following manufacturer's instructions. About 10,000 RU of anti-His was obtained. His-tagged hTfR ectodomain (SEQ ID NO: 39), cTfR ectodomain (SEQ ID NO: 40) or mouse TfR ectodomain (SEQ ID NO: 41) (5 μg/ml) was captured for 1 min at 10 μL/min. Concentration series of the humanized Fab variants were then injected for 4 min at 30 μL/min over hTfR surfaces and dissociation was monitored for 5 min. Surface was regenerated with one 1 min pulse of 10 mM glycine-HCl at pH 1.5.

[2] = biological target: His-tagged mouse TfR ectodomain (mTFRC_89_764; mature protein) (mouse, UniProt Q62351 89-763); assay: SPR, His-tagged mTfR ectodomain captured on anti-His
Chain of His-tagged mouse TfR ectodomain (mTFRC_89_764; mature protein) (Q62351 other isoform, or with tags, fused parts or gaps): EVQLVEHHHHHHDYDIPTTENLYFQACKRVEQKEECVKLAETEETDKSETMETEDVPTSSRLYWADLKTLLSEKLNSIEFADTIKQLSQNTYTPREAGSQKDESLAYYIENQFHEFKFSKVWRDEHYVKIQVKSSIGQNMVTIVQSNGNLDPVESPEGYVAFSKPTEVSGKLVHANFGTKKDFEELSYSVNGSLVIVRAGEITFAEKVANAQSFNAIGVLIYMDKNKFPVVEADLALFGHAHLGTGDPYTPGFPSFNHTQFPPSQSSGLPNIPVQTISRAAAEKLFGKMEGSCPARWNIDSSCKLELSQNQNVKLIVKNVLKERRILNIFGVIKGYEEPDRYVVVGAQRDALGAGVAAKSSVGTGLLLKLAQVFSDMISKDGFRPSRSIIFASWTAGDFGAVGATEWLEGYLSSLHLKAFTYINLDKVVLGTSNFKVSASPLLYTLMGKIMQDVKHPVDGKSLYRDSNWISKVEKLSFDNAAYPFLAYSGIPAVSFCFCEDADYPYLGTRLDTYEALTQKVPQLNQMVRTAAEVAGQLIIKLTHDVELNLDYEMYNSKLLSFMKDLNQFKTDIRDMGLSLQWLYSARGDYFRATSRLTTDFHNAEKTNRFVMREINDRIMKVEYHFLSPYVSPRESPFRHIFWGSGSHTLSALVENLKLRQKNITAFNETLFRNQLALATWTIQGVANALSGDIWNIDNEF
Procedure: as §1

[3] = biological target: T1, His-tagged human TfR ectodomain (hTFRC_89-760_G142S; mature protein) (human, UniProt P02786 89-760); assay: SPR, His-tagged TfR ectodomain captured on anti-His, 1:1 fit
T1 construct: It carries the G142S haplotype; also called hTfR ectodomain
Procedure: as §1

[4] = biological target: B2; assay: as above
Procedure: as §1

[5] = biological target: B2; assay: SPR; KD on cTfR against KD on hTfR
Procedure: as §1

[6] = biological target: T1, His-tagged human TfR ectodomain …; assay: SPR, His-tagged TfR ectodomain captured on anti-His, 1:1 fit; remark: listed apart in the source
Procedure: as §1
Target sequence in this assay (P02786 89-760 G142S): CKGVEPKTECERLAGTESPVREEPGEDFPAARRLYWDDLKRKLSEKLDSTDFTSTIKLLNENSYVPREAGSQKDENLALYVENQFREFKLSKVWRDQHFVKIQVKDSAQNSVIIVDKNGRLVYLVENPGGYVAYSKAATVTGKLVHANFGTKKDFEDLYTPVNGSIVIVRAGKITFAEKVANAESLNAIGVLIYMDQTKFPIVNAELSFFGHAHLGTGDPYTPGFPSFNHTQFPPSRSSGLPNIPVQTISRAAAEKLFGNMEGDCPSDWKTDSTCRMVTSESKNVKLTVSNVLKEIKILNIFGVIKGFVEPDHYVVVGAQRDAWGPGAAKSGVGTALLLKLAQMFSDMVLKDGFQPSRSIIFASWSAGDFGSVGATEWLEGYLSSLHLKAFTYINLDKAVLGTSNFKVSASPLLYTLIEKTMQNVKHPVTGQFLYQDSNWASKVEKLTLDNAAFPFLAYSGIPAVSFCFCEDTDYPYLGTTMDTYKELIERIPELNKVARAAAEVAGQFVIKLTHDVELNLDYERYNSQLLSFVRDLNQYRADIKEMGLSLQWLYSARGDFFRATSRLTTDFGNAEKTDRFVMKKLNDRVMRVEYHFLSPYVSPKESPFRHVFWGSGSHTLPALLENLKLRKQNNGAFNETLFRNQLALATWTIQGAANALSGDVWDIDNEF

[7] = biological target: B2; assay: as above
Procedure: as §1

[8] = biological target: T2, anti-TfR 531v25-Fab-FcOL-GAA; assay: as above
T2 construct: Monovalent Fab-FcOL with GAA fused to the C-terminus of the Fc polypeptide
T2 sequence (chain, as listed by the source): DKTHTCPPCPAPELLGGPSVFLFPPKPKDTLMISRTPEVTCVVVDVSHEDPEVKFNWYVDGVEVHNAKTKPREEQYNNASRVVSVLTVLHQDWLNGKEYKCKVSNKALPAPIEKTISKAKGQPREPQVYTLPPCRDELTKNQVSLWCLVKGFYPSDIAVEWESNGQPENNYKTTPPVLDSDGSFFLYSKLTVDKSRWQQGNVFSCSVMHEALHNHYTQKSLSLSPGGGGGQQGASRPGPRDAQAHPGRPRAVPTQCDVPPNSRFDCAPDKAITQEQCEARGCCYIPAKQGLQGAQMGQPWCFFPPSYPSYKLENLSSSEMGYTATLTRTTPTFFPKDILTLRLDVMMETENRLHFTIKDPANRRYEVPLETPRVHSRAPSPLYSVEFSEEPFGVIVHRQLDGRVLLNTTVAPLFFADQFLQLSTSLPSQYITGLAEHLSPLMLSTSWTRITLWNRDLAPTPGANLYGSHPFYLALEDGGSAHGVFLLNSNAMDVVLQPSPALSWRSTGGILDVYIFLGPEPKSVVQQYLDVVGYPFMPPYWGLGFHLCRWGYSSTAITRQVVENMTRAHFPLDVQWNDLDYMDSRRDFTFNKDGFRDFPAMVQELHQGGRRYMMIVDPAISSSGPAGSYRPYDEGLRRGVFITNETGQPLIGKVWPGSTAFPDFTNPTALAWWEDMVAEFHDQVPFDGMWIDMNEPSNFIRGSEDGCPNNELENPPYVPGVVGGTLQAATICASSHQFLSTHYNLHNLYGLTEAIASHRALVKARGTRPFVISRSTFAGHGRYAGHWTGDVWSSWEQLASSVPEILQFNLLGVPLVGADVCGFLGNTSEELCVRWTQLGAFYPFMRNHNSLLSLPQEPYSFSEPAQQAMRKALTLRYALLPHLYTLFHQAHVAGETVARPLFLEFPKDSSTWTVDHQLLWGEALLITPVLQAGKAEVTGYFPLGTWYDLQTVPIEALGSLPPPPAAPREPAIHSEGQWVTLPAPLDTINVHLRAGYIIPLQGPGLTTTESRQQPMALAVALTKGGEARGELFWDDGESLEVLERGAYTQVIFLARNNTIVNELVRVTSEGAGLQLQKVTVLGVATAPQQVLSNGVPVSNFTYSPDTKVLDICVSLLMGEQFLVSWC
Procedure: as §1
(§2) Affinity by SPR was also measured for the 531v25-mAb-GAAx2 molecule (a GAA sequence fused to both HCs).

[9] = biological target: T3, anti-TfR 531v25-Fab-FcOL-LC-GAA (Homo sapiens (Human), UniProt P0DOX5 223-448 = IgG part); assay: as above
T3 construct: Monovalent Fab-FcOL with GAA fused to the C-terminus of the light chain
Procedure: as §1, §2

[10] = biological target: T2, anti-TfR 531v25-Fab-FcOL-GAA; assay: flow cytometry on TfR-expressing 300.19 cells
[11] = biological target: T3, anti-TfR 531v25-Fab-FcOL-LC-GAA; assay: flow cytometry on TfR-expressing 300.19 cells

Binder: B1
- Cynomolgus/human KD ratio [1]: 12.4
- binding result [2]: no binding
- Kd [3]: 4.5 nM
- Kd [4]: 55.8 nM
- Cynomolgus/human KD ratio [5]: 12.5
- Kd [6]: 4.45 nM
- Kd [7]: 55.8 nM

Binder: B2
- Kd [8]: 89 nM
- Kd [9]: 154 nM

Binder: B3
- binding result [10]: binds
- binding result [11]: binds
